Measured values reported in a protein production outcome set (Wang et al. 2014).

Test: label from the status in PepcDB records

Which protein production does the source give for “MTMADETIILNVLGQYTRAHDRRDPDAMAALFAPEATIEIVDAVGGASRSISRLEGRDAIRVAVRQMMAPHGYRAWSQNVVNAPIIVIEGDHAVLDAQFMVFSILAAEVPDGGWPTGTFGAQGRIVPIEAGQYRLTLRTVADGWVISAMRIEHRLPMAFG” here?
Its protein production is “not failed”.

Which protein production does the source give for “MTMDGDSSTTDASQLGISADYIGGSHYVIQPHDDTEDSMNDHEDTNGSKESFREQDIYLPIANVARIMKNAIPQTGKIAKDAKECVQECVSEFISFITSEASERCHQEKRKTINGEDILFAMSTLGFDSYVEPLKLYLQKFREAMKGEKGIGGAVTATDGLSEELTEEAFTNQLPAGLITTDGQQQNVMVYTTSYQQISGVQQIQFS” here?
Its protein production is “failed”.

With “MTMNPLPLQKEAEKRSPRLNSPFKSLMRIHWWMALAYLIVFCTGTLMVNLERGQFLRSELYDFHKSIGILTMALLTWRIFTLLQVWWRKYTKRPPKLSLAWWRTFTLHLSLYVFMGVIPISGFLLSNSFKANNVRFFSITLPDIFPQNEAMVEIGRNAHFWLAYTFLIFIFIHMLTYWKVIRANWRRWVNFIGKFQQQT” as the sequence, how does the protein production read?
The protein production was “failed”.

For “MTMTLHTKASGMALLHQIQGNELEPLNRPQLKIPLERPLGEVYLDSSKPAVYNYPEGAAYEFNAAAAANAQVYGQTGLPYGPGSEAAAFGSNGLGGFPPLNSVSPSPLMLLHPPPQLSPFLQPHGQQVPYYLENEPSGYTVREAGPPAFYRPNSDNRRQGGRERLASTNDKGSMAMESAKETRYCAVCNDYASGYHYGVWSCEGCKAFFKRSIQGHNDYMCPATNQCTIDKNRRKSCQACRLRKCYEVGMMKGGIRKDRRGGRMLKHKRQRDDGEGRGEVGSAGDMRAANLWPSPLMIKRSKKNSLALSLTADQMVSALLDAEPPILYSEYDPTRPFSEASMMGLLTNLADRELVHMINWAKRVPGFVDLTLHDQVHLLECAWLEILMIGLVWRSMEHPVKLLFAPNLLLDRNQGKCVEGMVEIFDMLLATSSRFRMMNLQGEEFVCLKSIILLNSGVYTFLSSTLKSLEEKDHIHRVLDKITDTLIHLMAKAGLTLQQQHQRLAQLLLILSHIRHMSNKGMEHLYSMKCKNVVPLYDLLLEMLDAHRLHAPTSRGGASVEETDQSHLATAGSTSSHSLQKYYITGEAEGFPATV”, which protein production is on record?
Its protein production is “not failed”.

For “MTNAFSEELALEAAGLDAIFGKDFKAEETTTGHVRWSVPLSHNGVELELAFLLDSAYPLDSEPQVRVTCKEGLSLRAVRELEGHLQKVAAENRGSPSAYLLYTAAQDWIDTHDRREAAEAISATIASTRLSAREPDSAGTGTTFETKAESFTQLVEHETLEHATIDRTLGTPVTPETFAAWKQEFDKYLLENGILDIANNADIELDASQGGWKGNSRRKPTGRELFTMHREMFVDDFEESDQCESTASGACDTQGSELAEHVDASLFLS”, which protein production is on record?
Its protein production is “failed”.

For “MTNDQIKKAKNGTYYFRANLGYDVKGKKIQKYRSGFKTKKEAREEYSRLLLMNPDDLNENKDKMMFEYYINEIFLPWYKTQVKLRTYENRIPTIQKHFPYFYKMAVSDIEPINVQDWQLKMTKNLKPSYVRAVQGLFSVAMDRAIVLGITTTNPSKIIGNVKKVKPKVEFWTKEEFEKVLSLIYKEDYYQNFLFISLWFLFMTGMRIGEATAIQWEDIDFETGVVSITKTLYYKSQIDYKFVEPKTKASVRHIVLDKVTLSYLADWREVQQNVVKTNFVMSYNGIPTQKHTIAHAIDRFSKMAGIHRIKIHALRHSHASLLISMGENPLIIKERLGHEDIETTLGTYGHLYPNSNFEVASKLNGIISFQPAEQNLDSSPKNQFTVNYRQNKQPNSAIKVQ”, which protein production is on record?
Its protein production is “failed”.

For “MTNGKIWLVVKPTVGVPLFLSAAVIASVVIHAAVLTTTTWLPDYYQGSAKVAAE”, which protein production is on record?
Its protein production is “failed”.

With “MTNHQKRLAVPKSWPVERKEEAYTTKAAAGPHGEEGVPLLIVLRDVLGYVDSKKEARYALEQDSILINGTAVSDERRPVGMFDILAFDEREEYYRIFPDEGGRLSLTPIDEDAAGSKLGKIVGKTQVAGGDTQLSLHDGETLLVEDATAYDTNDSIVVSNDGEEIVAHFTYEEGALVTAVSGAHAGRIGTIDEIQVTPGSSANNVLIDAENDDERFETVEEYVVVIDENFTDGGDDE” as the sequence, how does the protein production read?
Its protein production is “failed”.

With “MTNKRVVQTFLATSALFLAMSGMSARAQDASAPAAGAPAPSAAAPMHHHGSGFKKLDTNGDGMVSRDEAKGHRWLEDHFDEIDTNHDGQISKDELAAWHKTHAGEMRGKMQARLDAKFKAADKNGDGALTREEMQAGLPKLARHFDEIDANHDGKVTEDEIRAFMKARHDAHRAQHGTPAAAVTPGGPSATKGE” as the sequence, how does the protein production read?
Its protein production is “failed”.

Which protein production does the source give for “MTNLDEFLEELSSIESHSQKIVKIDEHLKKLDEETKEDEDEDAAKIIQDRSTAREAEIALLMDLRQNFLPPPSMSSSSLQPPSSSTLAPSSSSSLQPPAPLIDFFRSSVSYSHQPPSSSTLATSSSPSLQPPSMSSSSLQPPASLREFFTSSVSYSHQPSSSSTLATSSFFPSSMPYSVRPPDSSDRPSLREFFPSSPSSSIQPPESSSSKRARLSNIFPSPLSSSPSPFVNPFLRPQAQEPTIPNFINPIPQISPGLPALFPNPNPNPNPNPIPNPIRNPDLVWTNRLQLVFDDAVVRLGGLFSATPKAINELISEEGLTGDQIRSHLQVLRDRQKAIADKLALE” here?
The protein production was “failed”.

With “MTNLKLFNFEGSKVRTVILDEEPFFVGIDVASILGYSNPQKAMRDHCKKPAESLVNDSLGRPRRTLVLSESDVYRLVLRSDLPSAEKFENWLMDEVLPSIRKHGAYMTDDTIEKAITDPDFLIRLATNLKEEKSKRLEAEQKIEAQRPKVLFADAVSDTEGTILIRDLAKLIQQNGVDIGEKRLFEWLRQNGYLISRRGTDYNRPTQKSMELGLFKIKETAIMRSSGAHTAITAKVTGKGQLYFVNKFLEQSLVAN” as the sequence, how does the protein production read?
The protein production was “failed”.

With “MTNMFSLLYPLISIVIGVVPLFIFKRNAYLLGIAAASYFTAIILKEIIQLSFRSFFITPTLPTYLSYGILTAIFEPGFAYLYLVLTKAKVNGQLGLSYGSYLAFYENAIFLGLLSLPNYLLLSVQFSVLSLALYGLERISSFILHLFWGFSSALSASKKNIKYLSVSMPYGMVDSVAAYYQLSHNISLVSTEIISLVVSISCLPIIVLWYKMDKRNQRLD” as the sequence, how does the protein production read?
The protein production was “failed”.

With “MTNPGDGAAGAADRATLDHWRPRLAAIAAAAGQDDAAHDLGHLRRVWDAARAMLQAHPEADALVVLAASYLHDLVNLPKNHPERHLASRQAAAAARERLARAGFPAARLDAVAHAIEAHSFSAGIAPRTIEARIVQDADRLDALGPVGLVRMFHVGGSLGRALAHPSDPLAAQRALDDSRYTLDHIEAKLARLPHGMQTEAGRRLGEQRLAWLRDFRAAFSAQWGGGQLRLEHHHHHH” as the sequence, how does the protein production read?
Its protein production is “failed”.

Which protein production does the source give for “MTNTAAPATVSAGWADALLASFGQAGYAKAEPAILQPAEPFLDLSGEDIRKSLYLTTDAGGEELCLRPDLTIPVARDYLASSSAGKPAGFCYLGPVFRQRGGKRSEFLQAGIESFGRKDRAAADAEMLALALGATAAFGVAELDIRTGDVALFTALIDALDLYPVWRRRLIKDFNRKSDLAQDLEQLTLATATPRNEYEGVLAALAGSDRKAALALVTDLMSIAGASNVGGRSVAEIADRFLEQSTLKGGALPRDALDKIKRFLAISGSPGDALLQLRALAADAKLDIVAAIDEFEARIGFMAARGIDLSATRFSTSFGRGVDYYTGFEFELHRKDNGDEPLVAGGRYDGLLSQLGATAPIAAVGFSVWIEAFTDLAHPANSSAGSAT” here?
The protein production was “failed”.

For “MTPAELISRLEEAWLNEKFSPELLENKSELVECVMEQLTHMEENLQRVRKGDLKASVHRMEIDRIRFVLSSFLRSRLKKIEKFFPHVLEKEKSRADGDPSFLSPEEFAFAKEYLANTEVYLRAVALKHMPPNLQSVDMMKAVPEPCLDSFVFLRVKEKQENILVEPETDEQREYVVDLDEGSQHLMRYRTIAPLVASGAVQLI”, which protein production is on record?
Its protein production is “failed”.

With “MTPHPARSKISPYRDIEIFMDLEDWSARLKVFADATRVRLLALLEQEELTVAELSAITRLAQPRVSTHLAKLKEAGLVRDRRAGVSAYYRFDEVSLDPAQRALWLALSTGSDDPLLRQDAERVAAVLANRAADQNWADSVAGDMERHYSPGRTWEALARTALPLLETGDVLDIASGDGVLAELVAPHATRYICIDTSARVVAAASERLRKLRNVEVREGDMHALPFPDASFDLVVLMHALTYAAKPAQAVAESARVLRPGGRLLLCSLAKHEHRAAVQAYGHVNLGFAAKELRKFVEKAGLDVSNLESVTREKRPPHFEVISLIAMKPGIGNRESGLVEGKSNASRRANA” as the sequence, how does the protein production read?
The protein production was “failed”.

Which protein production does the source give for “MTPQIATILGLVIMFIVATALPINMGAVAFALAFIIGGVWVGLEGKEVLAGFPGDLFLTLVGITYLFAIAQKNGTIDLLVHWAVRAVRGRIVAIPWVMFVITGLLTAFGALGPAAVAIIGPVALRFAKQYRINPLMMGLLVIHGAQGGGFSPISVYGGITNKVVEKAGLDVSEMAVFLTSLGFNLMMAIICFCAFGGLKLMRRQELSLADAQYVAVAGDQASHRGFAIEGHGALVAPGGGTLSTDPLALEAVSITRDRVITLIGLLGLGVAALIYNLNVGLVSITVAVALALISPNAQKGAVDGISWSTVLLISGVVTYIAVLEKSGAVDYIGTGVSHIGMPLLGALLVCYVGGIVSAFASSAAVLGATIPLAVPFLMQGQLGAAGVICALAVSSTIVDVSPFSTNGALVVASAAKEERDGLFRRFLIYSGLVVLLGPLAAWLVFVVPGWL” here?
The protein production was “failed”.

With “MTPRRHDNDYERRKWRQVAGHFGMGAAFGALFAGIVLFNNYFGLSSVIATSEAPTLVRIIFVVGVAGSFAFMAAITGFLFLVHED” as the sequence, how does the protein production read?
Its protein production is “failed”.

Which protein production does the source give for “MTQAASAAPQSAHSAKWKWAKRAFTAFFFIAVPVLLFMLVKNLDWQEVKKALASYKASTLAIAAVVAFASYATYCGFDILARYYTRHKLSIKQIVPVTFVCYAFNLNLSSWVGGIALRYRLYSRLGLEVSTITRILSLSLITNWLGYMLLAGFVFSMRFLELPEEWSIGTTTLQLIGFGLLAVCFSYLLACRFSKKRSWTIRDQEFNLPSMKQALMQASLGALNWALMAAVIYTLLPDKAFYPAILGVLLISSIAGVITHIPAGLGVLETVFITLLSHQFSKGSLLAALIGYRAIYFLLPLMIALVVYLVLEKRAKKMGEKNQRRMGQEANS” here?
Its protein production is “failed”.

With “MTQGTARAQQNNIPVGIALMLAATVVFALQDGISRHLASSYNTYMVVMIRYWFFAAFVIALAARSRGGLRAATRTAQPGLQIFRGLLLASEICVAVFAFTVLGLIESMAVFICYPLLVAALSGPVLGEKVGWRRWAAIGVGLVGVLIILQPGMGVFNPWAVVPLISALMFALYGLLTRYAARQDSTATSFFWTGVTGAVAMTAVGLWFWEPMSAPDWRWMALLCVSGALGHWLLIKCYEMAEASAVQPFAYFHLMWTAILGITVFGETLRSAVIIGAALIVAAGLFTLWRERAQSRSR” as the sequence, how does the protein production read?
Its protein production is “failed”.

Which protein production does the source give for “MTQHRLNTSQWFGLLGWLVLCYAVAALGAMASIQAASFYAQLQRPAWAPPGWLFGSVWTVLYGMMAVSVWSVWRRGGWAGARVALTLFLVQLALNGLWSWLFFAWHLGAWAFTDIVALWLVLAATIGVFAKRQALAAWLLVPYLAWVSFAAALNFSVWQLNLQMLG” here?
The protein production was “failed”.

Which protein production does the source give for “MTQHYLRSAAYRDFSIHSIYGMSDDDIHAMFARLRWSSDSHQACPACGAWAQHYRRPARQQWRCKECGRDFSVTSATAFSSRKKSLRSILLATFYYVTGVKGLAGLGLSRMGDYSNKAAHVALGKLREAIFRTQDFTPLTGVVEIDGGYFGGKPRKPNRRGLRNDQAIVDRIAGRPAKRPWHASGMTRTNWEKRKNKRVVMIFRQQGRPGEGAVRSIAAVARSENDKDAAKLIARYVSSEAIIMTDESPAYATVSATHTHYAVRHSHEYVSAEGVNENQAESFFSRLRRWEYGVSHGVRPAYLADYANEMAWREDVRRFSIRTQVEMLLIKALTVGHSRWWRGYYQGKRRGTEILMNQGIPPSSASGASAQ” here?
Its protein production is “failed”.

For “MTQKEISIIHPRPSSIVAALYTLRDLNVDVAILHGPPGCSFKHARLLEEDGIHVVTTGLDENGFVFGGHDKLVQVINKSIELFNPKILGVVGTCASMIIGEEMHEAVLEANPDIPVIEVEVHAGYHNNTKGVIFALESALDAGIIDHKEFERQEYLEHHHHHH”, which protein production is on record?
The protein production was “not failed”.
